Results on 16 molecules are retold here after patent US20210047399A1 (PHANES THERAPEUTICS, published 2021).

T1: recombinant FLAG-huDLL3 (human DLL3 extracellular domain with FLAG tag at the N-terminus) (human, UniProt Q9NYJ7 27-492)
T1 construct: Bought (Adipogen, Cat AG40B-0151); the whole entry is named here; also called recombinant DLL3 protein; recombinant human FLAG-huDLL3; not shown: N-terminal FLAG tag
T1 sequence: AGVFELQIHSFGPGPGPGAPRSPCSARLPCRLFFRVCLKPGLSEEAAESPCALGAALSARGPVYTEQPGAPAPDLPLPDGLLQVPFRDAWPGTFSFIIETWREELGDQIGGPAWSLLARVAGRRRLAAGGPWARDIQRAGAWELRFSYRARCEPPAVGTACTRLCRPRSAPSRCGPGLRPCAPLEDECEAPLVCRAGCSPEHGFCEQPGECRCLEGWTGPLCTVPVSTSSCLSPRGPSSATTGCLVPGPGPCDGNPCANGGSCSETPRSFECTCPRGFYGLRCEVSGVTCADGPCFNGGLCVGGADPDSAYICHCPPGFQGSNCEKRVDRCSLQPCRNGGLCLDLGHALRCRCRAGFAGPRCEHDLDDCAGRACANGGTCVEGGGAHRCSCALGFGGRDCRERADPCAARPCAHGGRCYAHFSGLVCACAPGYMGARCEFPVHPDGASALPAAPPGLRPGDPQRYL

B1: humanized anti-CD47 mAb KH3L4 (antibody, V domains shown)
VH: EVRLSQSGGQMKKPGESMRLSCRASGYTFTSYWMHWVRQAPGRRLEWIGNIDPSDSETHYARKFQGRATLTVDKYSDTAFLELRSLTSDDTAVYYCAGTDLAYWGRGAPVTVSS
VL: EIVMTQSPATLSLSPGETAIISCHASQNINVWLSWYQQRPGQAPRLLIYKASNLHTGIPDRFSGSGWGTDFNLSISNLESGDFGVYYCQQGQSYPWTFGQGTKVEIK
B2: humanized anti-CD47 mAb KH2L3 (antibody, V domains shown)
VH: QVQLVQSGAEVKKPGASVKVSCKASGYTFTSYWMHWVRQAPGQGLEWIGNIDPSDSETHYAQKFQGRVTLTVDKSTSTVYMELSSLRSEDTAVYYCAGTDLAYWGQGTLVTVSS
VL: EIVMTQSPATLSLSPGETAIISCHASQNINVWLSWYQQRPGQAPRLLIYKASNLHTGIPDRFSGSGWGTDFNLSISNLESGDFGVYYCQQGQSYPFTFGQGTKVEIK
B3: humanized anti-CD47 mAb KH1L1 (antibody, V domains shown)
VH: QVQLVQSGAEVKKPGSSVKVSCKASGYTFTSYWMHWVRQAPGQGLEWIGNIDPSDSETHYAQKFQGRATLTVDKSTSTAYMELSSLRSEDTAVYYCAGTDLAYWGQGTLVTVSS
VL: EIVMTQSPGTLSLSPGERATLSCHASQNINVWLSWYQQKPGQAPRLLIYKASNLHTGIPDRFSGSGSGTDFTLTISRLEPEDFAVYYCQQGQSYPFTFGQGTKVEIK
notes: Humanized VH of anti-CD47 mAb 17C6A with humanized VL of anti-DLL3 13P9A
B4: humanized anti-CD47 mAb KH3L1 (antibody, V domains shown)
VH: EVRLSQSGGQMKKPGESMRLSCRASGYTFTSYWMHWVRQAPGRRLEWIGNIDPSDSETHYARKFQGRATLTVDKYSDTAFLELRSLTSDDTAVYYCAGTDLAYWGRGAPVTVSS
VL: EIVMTQSPGTLSLSPGERATLSCHASQNINVWLSWYQQKPGQAPRLLIYKASNLHTGIPDRFSGSGSGTDFTLTISRLEPEDFAVYYCQQGQSYPFTFGQGTKVEIK
B5: humanized anti-CD47 mAb KH2L2 (antibody, V domains shown)
VH: QVQLVQSGAEVKKPGASVKVSCKASGYTFTSYWMHWVRQAPGQGLEWIGNIDPSDSETHYAQKFQGRVTLTVDKSTSTVYMELSSLRSEDTAVYYCAGTDLAYWGQGTLVTVSS
VL: EIVLTQSPGTLSLSPGERATLSCHASQNINVWLSWYQQKPGQAPRLLIYKASNLHTGIPDRFSGSGSGTDFTLTISRLEPEDFAVYYCQQGQSYPFTFGQGTKVEIK
notes: also called anti-CD47 parental mAb
B6: humanized anti-CD47 mAb KH1L2 (antibody, V domains shown)
VH: QVQLVQSGAEVKKPGSSVKVSCKASGYTFTSYWMHWVRQAPGQGLEWIGNIDPSDSETHYAQKFQGRATLTVDKSTSTAYMELSSLRSEDTAVYYCAGTDLAYWGQGTLVTVSS
VL: EIVLTQSPGTLSLSPGERATLSCHASQNINVWLSWYQQKPGQAPRLLIYKASNLHTGIPDRFSGSGSGTDFTLTISRLEPEDFAVYYCQQGQSYPFTFGQGTKVEIK
B7: humanized anti-CD47 mAb KH1L3 (antibody, V domains shown)
VH: QVQLVQSGAEVKKPGSSVKVSCKASGYTFTSYWMHWVRQAPGQGLEWIGNIDPSDSETHYAQKFQGRATLTVDKSTSTAYMELSSLRSEDTAVYYCAGTDLAYWGQGTLVTVSS
VL: EIVMTQSPATLSLSPGETAIISCHASQNINVWLSWYQQRPGQAPRLLIYKASNLHTGIPDRFSGSGWGTDFNLSISNLESGDFGVYYCQQGQSYPFTFGQGTKVEIK
B8: humanized anti-CD47 mAb KH3L3 (antibody, V domains shown)
VH: EVRLSQSGGQMKKPGESMRLSCRASGYTFTSYWMHWVRQAPGRRLEWIGNIDPSDSETHYARKFQGRATLTVDKYSDTAFLELRSLTSDDTAVYYCAGTDLAYWGRGAPVTVSS
VL: EIVMTQSPATLSLSPGETAIISCHASQNINVWLSWYQQRPGQAPRLLIYKASNLHTGIPDRFSGSGWGTDFNLSISNLESGDFGVYYCQQGQSYPFTFGQGTKVEIK
B9: humanized anti-CD47 mAb KH3L2 (antibody, V domains shown)
VH: EVRLSQSGGQMKKPGESMRLSCRASGYTFTSYWMHWVRQAPGRRLEWIGNIDPSDSETHYARKFQGRATLTVDKYSDTAFLELRSLTSDDTAVYYCAGTDLAYWGRGAPVTVSS
VL: EIVLTQSPGTLSLSPGERATLSCHASQNINVWLSWYQQKPGQAPRLLIYKASNLHTGIPDRFSGSGSGTDFTLTISRLEPEDFAVYYCQQGQSYPFTFGQGTKVEIK
B10: humanized anti-CD47 mAb KH2L1 (antibody, V domains shown)
VH: QVQLVQSGAEVKKPGASVKVSCKASGYTFTSYWMHWVRQAPGQGLEWIGNIDPSDSETHYAQKFQGRVTLTVDKSTSTVYMELSSLRSEDTAVYYCAGTDLAYWGQGTLVTVSS
VL: EIVMTQSPGTLSLSPGERATLSCHASQNINVWLSWYQQKPGQAPRLLIYKASNLHTGIPDRFSGSGSGTDFTLTISRLEPEDFAVYYCQQGQSYPFTFGQGTKVEIK
B11: humanized anti-DLL3 mAb H1L1 (antibody, V domains shown)
VH: EVRLSQSGGQMKKPGESMRLSCRASGYTFTSYVMHWVRQAPGRRPEWIGYINPYNDATKYARKFQGRATLTSDKYSDTAFLELRSLTSDDTAVYYCARGGYDYDGDYWGRGAPVTVSS
VL: EIVMTQSPGTLSLSPGERATLSCHASQNINVWLSWYQQKPGQAPRLLIYKASNLHTGIPDRFSGSGSGTDFTLTISRLEPEDFAVYYCQQGQSYPFTFGQGTKVEIK
notes: Humanized 13P9A
B12: humanized anti-DLL3 mAb H1L3 (antibody, V domains shown)
VH: EVRLSQSGGQMKKPGESMRLSCRASGYTFTSYVMHWVRQAPGRRPEWIGYINPYNDATKYARKFQGRATLTSDKYSDTAFLELRSLTSDDTAVYYCARGGYDYDGDYWGRGAPVTVSS
VL: EIVMTQSPATLSLSPGETAIISCHASQNINVWLSWYQQRPGQAPRLLIYKASNLHTGIPDRFSGSGWGTDFNLSISNLESGDFGVYYCQQGQSYPFTFGQGTKVEIK
B13: humanized anti-DLL3 mAb H1L2 (antibody, V domains shown)
VH: EVRLSQSGGQMKKPGESMRLSCRASGYTFTSYVMHWVRQAPGRRPEWIGYINPYNDATKYARKFQGRATLTSDKYSDTAFLELRSLTSDDTAVYYCARGGYDYDGDYWGRGAPVTVSS
VL: EIVLTQSPGTLSLSPGERATLSCHASQNINVWLSWYQQKPGQAPRLLIYKASNLHTGIPDRFSGSGSGTDFTLTISRLEPEDFAVYYCQQGQSYPFTFGQGTKVEIK
notes: also called anti-DLL3 parental mAb
B14: anti-CD47/DLL3 bispecific antibody BA1(C) (bispecific antibody)
heavy 1: QVQLVQSGAEVKKPGASVKVSCKASGYTFTSYWMHWVRQAPGQGLEWIGNIDPSDSETHYAQKFQGRVTLTVDKSTSTVYMELSSLRSEDTAVYYCAGTDLAYWGQGTLVTVSS
heavy 2: EVRLSQSGGQMKKPGESMRLSCRASGYTFTSYVMHWVRQAPGRRPEWIGYINPYNDATKYARKFQGRATLTSDKYSDTAFLELRSLTSDDTAVYYCARGGYDYDGDYWGRGAPVTVSS
light: EIVLTQSPGTLSLSPGERATLSCHASQNINVWLSWYQQKPGQAPRLLIYKASNLHTGIPDRFSGSGSGTDFTLTISRLEPEDFAVYYCQQGQSYPFTFGQGTKVEIK
notes: BA1 further modified by S354C on the anti-CD47 HC (KH2) and Y349C on the anti-DLL3 HC (H1); not shown: IgG1 heavy chain constant region, knob with added cysteine; IgG1 heavy chain constant region, hole with added cysteine; kappa light chain constant region
B15: anti-CD47/DLL3 bispecific antibody BA1 (KH2/H1/L2) (bispecific antibody)
heavy 1: QVQLVQSGAEVKKPGASVKVSCKASGYTFTSYWMHWVRQAPGQGLEWIGNIDPSDSETHYAQKFQGRVTLTVDKSTSTVYMELSSLRSEDTAVYYCAGTDLAYWGQGTLVTVSS
heavy 2: EVRLSQSGGQMKKPGESMRLSCRASGYTFTSYVMHWVRQAPGRRPEWIGYINPYNDATKYARKFQGRATLTSDKYSDTAFLELRSLTSDDTAVYYCARGGYDYDGDYWGRGAPVTVSS
light: EIVLTQSPGTLSLSPGERATLSCHASQNINVWLSWYQQKPGQAPRLLIYKASNLHTGIPDRFSGSGSGTDFTLTISRLEPEDFAVYYCQQGQSYPFTFGQGTKVEIK
notes: Common light chain L2; anti-CD47 arm KH2 (knob), anti-DLL3 arm H1 (hole); not shown: IgG1 heavy chain constant region, knob; IgG1 heavy chain constant region, hole; kappa light chain constant region
B16: anti-CD47/DLL3 bispecific antibody BA4(C) (bispecific antibody)
heavy 1: QVQLVQSGAEVKKPGASVKVSCKASGYTFTSYWMHWVRQAPGQGLEWIGNIDPSDSETHYAQKFQGRVTLTVDKSTSTVYMELSSLRSEDTAVYYCAGTDLAYWGQGTLVTVSS
heavy 2: EVRLSQSGGQMKKPGESMRLSCRASGYTFTSYVMHWVRQAPGRRPEWIGYINPYNDATKYARKFQGRATLTSDKYSDTAFLELRSLTSDDTAVYYCARGGYDYDGDYWGRGAPVTVSS
light: EIVLTQSPGTLSLSPGERATLSCHASQNINVWLSWYQQKPGQAPRLLIYKASNLHTGIPDRFSGSGSGTDFTLTISRLEPEDFAVYYCQQGQSYPFTFGQGTKVEIK
notes: Variable regions of BA1 on the IgG4 framework with the same cysteine mutations as BA1(C); not shown: IgG4 heavy chain constant region ("IgG4 frame work") with the same cysteine mutation as BA1(C); knob mutation not explic; hole mutations not expli; kappa light chain constant region

T2 sequence (Q08722 19-139 limits assumed): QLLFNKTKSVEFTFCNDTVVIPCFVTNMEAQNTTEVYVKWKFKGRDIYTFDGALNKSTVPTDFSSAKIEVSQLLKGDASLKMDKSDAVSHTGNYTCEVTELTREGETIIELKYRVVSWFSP

One test has as its target T2, human CD47 extracellular domain (CD47(ECD)) (human, UniProt Q08722 19-139).
T2 construct: extracellular domain; Bought protein; also called human CD47(ECD); immobilized CD47
In words: ELISA, human CD47(ECD) coated on plate. The procedure:
The purified mAbs were analyzed for their ability to bind to the extracellular domain of CD47 (CD47(ECD)) in an ELISA assay as follows: human CD47(ECD) (AcroBio, Cat #: CD7-HA2E9-50 μg) in carbonate coating buffer (50 μL/well at 1 μg/mL) was coated on a 96-well ELISA plate for 1 hour at room temperature. After washing, the plate was blocked in 5% BSA in TBST for 1 hour at room temperature and washed again. In each well of the plate, an antibody at 50 μL/well at various concentrations was added and incubated for 1 hour at room temperature. The plate was washed and the binding of the antibody to the immobilized CD47 was detected by incubating with anti-human IgG conjugated to horseradish peroxidase (hIgG-HRP) (ThermoFisher Scientific, Cat #: H10007) for 60 minutes at room temperature. Then after washing, the ELISA was developed using One-step Detection Solution (ThermoFisher Scientific, Cat #: 34028) and measured as the absorbance at 450 nm.
A general note: ELISA stands for enzyme-linked immunosorbent assay.
As a reminder, the EC50 is the midpoint of the concentration-response curve. Regarding B1, the EC50 was found to be 0.08 nM.
The same measure, in the same setting: under B2 stands 0.09 nM; under B3, 1.17 nM.
For the molecule B4, the EC50 turned out to be 0.09 nM.
Still for that read-out and setting: next, B5: 0.18 nM; B6: 0.64 nM; B7: 0.76 nM.
The same measure, in the same setting: next, B8: 0.18 nM; B9: 0.08 nM; B10: 0.19 nM.

For the next test, the target named is T1, recombinant FLAG-huDLL3 (human DLL3 …). Description: ELISA, FLAG-huDLL3 coated on plate.
For the molecule B11, the EC50 came to 0.13 nM.
Consider B12, for which the EC50 was determined as 0.15 nM.
The same measure, in the same setting: next, B13: 0.12 nM.

A further test has as its target T2, human CD47 extracellular domain …. In words: ELISA, CD47(ECD) coated on regular plate (FIG. 5).
For the molecule B14, the binding result was “binds”.
On the same count and under the same terms, next, B15: “binds”; B16: “binds”.
